Test results reported in article PMC8384158.

What was measured:
Assay in all cases: TAP pull-down interactome analysis (LC-MS/MS)
Conditions in all cases: MCF-7 cells; read off a plot
[1] = molecular target: CCT2
[2] = molecular target: CCT5
[3] = molecular target: CCT6A
[4] = molecular target: ERP29
[5] = molecular target: GANAB
[6] = molecular target: HSP90AB1
[7] = molecular target: HSPA2
[8] = molecular target: HSPA9
[9] = molecular target: PDIA4
[10] = molecular target: PSMB6
[11] = molecular target: PSMD2
[12] = molecular target: RPN2
[13] = molecular target: SERPINH1
[14] = molecular target: TCP1
[15] = molecular target: UBA1
[16] = molecular target: CCT3
[17] = molecular target: UCHL1

Row | other: log2 relative change [1] [log2] | other: log2 relative change [2] [log2] | other: log2 relative change [3] [log2] | other: log2 relative change [4] [log2] | other: log2 relative change [5] [log2] | other: log2 relative change [6] [log2] | other: log2 relative change [7] [log2] | other: log2 relative change [8] [log2] | other: log2 relative change [9] [log2] | other: log2 relative change [10] [log2] | other: log2 relative change [11] [log2] | other: log2 relative change [12] [log2] | other: log2 relative change [13] [log2] | other: log2 relative change [14] [log2] | other: log2 relative change [15] [log2] | other: log2 relative change [16] [log2] | other: log2 relative change [17] [log2] | Substance
1 | -0.82 | -1.5 | -1.6 | -2.3 | -0.47 | -1.2 | 0.7 | -0.32 | -0.8 | -0.9 | -2 | -1.9 | -0.85 | -1.7 | -0.2 |  |  | TAP–Bag-1S (from UniProt Q99933-4) I103K
2 | -1.6 | 2 |  |  | -1.8 | -1.9 |  | -0.32 | -0.7 | -2.3 | -2.1 |  | -1.3 | -0.52 | -2 | -1.4 |  | TAP–Bag-1S (from UniProt Q99933-4) R161D
3 | -1.5 | -0.35 | -2 |  | -0.52 | -1.7 |  | -1.7 | -1.8 | -2.3 |  | -2.1 | -1.1 | -1.9 | -0.47 | -1.2 |  | TAP–Bag-1S (from UniProt Q99933-4) R162E
4 | -0.05 | -0.45 |  | 1.5 | -0.15 | -0.65 | 0.77 | -0.07 | -0.65 | -0.85 | -1.1 | -1.5 | -0.12 | 0.5 | 0.37 | 1 | -0.77 | TAP–Bag-1S (from UniProt Q99933-4) R193D
